Measured values published in US9096654B2, “Peptides capable of modulating the function of TIRC7” (CELLACT PHARMA GMBH, priority 2005, dated 2015).

B1: TIRC7: in vitro translated T-cell immune response cDNA 7 protein, involved in signal transduction of T-cell activation and/or proliferation (protein, UniProt Q13488 1-830, looked up)
V-type proton ATPase 116 kDa …: MGSMFRSEEVALVQLFLPTAAAYTCVSRLGELGLVEFRDLNASVSAFQRRFVVDVRRCEELEKTFTFLQEEVRRAGLVLPPPKGRLPAPPPRDLLRIQEETERLAQELRDVRGNQQALRAQLHQLQLHAAVLRQGHEPQLAAAHTDGASERTPLLQAPGGPHQDLRVNFVAGAVEPHKAPALERLLWRACRGFLIASFRELEQPLEHPVTGEPATWMTFLISYWGEQIGQKIRKITDCFHCHVFPFLQQEEARLGALQQLQQQSQELQEVLGETERFLSQVLGRVLQLLPPGQVQVHKMKAVYLALNQCSVSTTHKCLIAEAWCSVRDLPALQEALRDSSMEEGVSAVAHRIPCRDMPPTLIRTNRFTASFQGIVDAYGVGRYQEVNPAPYTIITFPFLFAVMFGDVGHGLLMFLFALAMVLAENRPAVKAAQNEIWQTFFRGRYLLLLMGLFSIYTGFIYNECFSRATSIFPSGWSVAAMANQSGWSDAFLAQHTMLTLDPNVTGVFLGPYPFGIDPIWSLAANHLSFLNSFKMKMSVILGVVHMAFGVVLGVFNHVHFGQRHRLLLETLPELTFLLGLFGYLVFLVIYKWLCVWAARAASAPSILIHFINMFLFSHSPSNRLLYPRQEVVQATLVVLALAMVPILLLGTPLHLLHRHRRRLRRRPADRQEENKAGLLDLPDASVNGWSSDEEKAGGLDDEEEAELVPSEVLMHQAIHTIEFCLGCVSNTASYLRLWALSLAHAQLSEVLWAMVMRIGLGLGREVGVAAVVLVPIFAAFAVMTVAILLVMEGLSAFLHALRLHWVEFQNKFYSGTGYKLSPFTFAATDD
modifications: TIRC7 in vitro translated
B2: A61V: synthetic peptide derived from the third extracellular domain of TIRC7 protein (SEQ ID NO: 4, FIG. 1) (peptide)
chain: ADRQEENKAGLLDLPDASVNGWSSDEEKAGGLDDEEEAELVPSEVLMHQAIHTIEFCLGCV
modifications: TIRC7 peptide

Columns and labels:
[1] = system: PBMC; assay: Mixed lymphocyte reaction (MLR): inhibition of proliferation of stimulated PBMC by TIRC7 derived peptides; assay type: cell-based; conditions: mitomycin-inactivated PBMC (stimulator), CFSE-stained PBMC (responder), 6 days incubation with peptide in PBS, pH 7.3
Method: As described in Example 1 herein, peptides were tested for their ability to inhibit proliferation of mitomycin-stimulated PBMCs.
Freshly isolated PBMC were inactivated with mitomycin (stimulator), or stained with CFSE (responder). Cells were incubated for 6 days with the peptides as described in FIG. 1, dissolved in PBS and titrated to pH 7.3. Subsequently, an in vitro assay, mixed lymphocyte reaction (MLR), was performed essentially as described in international applications WO99/11782 and WO03/025000 to analyze the potency of the tested TIRC7 derived peptides to inhibit the immune response. For all peptides shown in FIG. 1 substantial inhibition of proliferation could be observed.

[2] = system: activated T-cells; conditions: dose dependent, cited from earlier work

| Molecule | inhibition of proliferation [1] | suppression of proliferation of activated T-cells in MLR ([2]; MLR) | suppression of proliferation of T-cells ([2]; in response to alloactivation in a mixed lymphocyte culture or in response to mitogens) |
| --- | --- | --- | --- |
| D46M: synthetic peptide derived from the third extracellular domain of TIRC7 protein (SEQ ID NO: 3, FIG. 1) (DRQEENKAGLLDLPDASVNGWSSDEEKAGGLDDEEEAELVPSEVLM; TIRC7 peptide) | Particular advantageous | – | – |
| B1 | – | significantly suppressed | efficiently suppress |
| B2 | Particular advantageous | – | – |
